This is an account of results in US20240010684A1 (Bayer, published 2024).

Bridges are numbered along the chain shown (N, C = ends). Where no end group is shown, it is not given here. [ ]: non-standard residue; d: D form. Oic = O=C(O)[C@@H]1C[C@@H]2CCCC[C@@H]2N1; tBuAla = CC(C)(C)C[C@H](N)C(=O)O; Pen = CC(C)(S)[C@H](N)C(=O)O; NMeC = CN[C@@H](CS)C(=O)O; Orn = NCCC[C@H](N)C(=O)O; Dab = NCC[C@H](N)C(=O)O; Abu = CC[C@H](N)C(=O)O; Dap = NC[C@H](N)C(=O)O; PEG2 = NCCOCCOCCC(=O)O; Ahx = NCCCCCC(=O)O

For assay [1], the target named is recombinant human MASP2 (amino acids 297-686, C-terminal His Tag) (human, UniProt O00187 297-686). The experiment in a line: cell-based or functional assay.
In assay [2] the target is T1, recombinant human MASP1 (amino acids 297-699, C-terminal His Tag) (human, UniProt P48740 297-699).
T1 sequence: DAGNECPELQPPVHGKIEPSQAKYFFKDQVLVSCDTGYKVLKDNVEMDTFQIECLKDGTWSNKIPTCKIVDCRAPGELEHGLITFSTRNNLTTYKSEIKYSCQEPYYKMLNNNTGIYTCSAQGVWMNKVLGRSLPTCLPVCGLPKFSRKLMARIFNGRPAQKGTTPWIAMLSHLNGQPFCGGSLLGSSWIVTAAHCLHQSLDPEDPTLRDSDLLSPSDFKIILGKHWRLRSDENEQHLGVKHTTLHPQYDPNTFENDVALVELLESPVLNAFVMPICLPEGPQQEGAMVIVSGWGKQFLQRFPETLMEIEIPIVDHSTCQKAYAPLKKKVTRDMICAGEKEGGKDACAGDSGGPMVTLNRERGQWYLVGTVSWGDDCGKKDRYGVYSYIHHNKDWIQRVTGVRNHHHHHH
The experiment in a line: cell-based or functional assay.

Chain of recombinant human MASP2 (amino acids 297-686, C-terminal His Tag) (O00187 other isoform, or with tags, fused parts or gaps limits assumed): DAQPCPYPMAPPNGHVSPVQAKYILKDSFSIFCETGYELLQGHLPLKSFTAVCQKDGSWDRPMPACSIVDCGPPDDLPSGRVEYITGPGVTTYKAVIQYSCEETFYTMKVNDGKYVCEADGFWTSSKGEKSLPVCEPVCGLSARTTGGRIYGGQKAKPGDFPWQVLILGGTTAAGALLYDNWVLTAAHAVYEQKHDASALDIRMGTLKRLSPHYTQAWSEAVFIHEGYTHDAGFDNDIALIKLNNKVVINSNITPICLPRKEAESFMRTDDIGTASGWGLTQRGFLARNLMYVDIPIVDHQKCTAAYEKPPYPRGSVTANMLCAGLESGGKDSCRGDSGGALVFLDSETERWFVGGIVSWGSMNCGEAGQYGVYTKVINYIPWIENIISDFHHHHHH

Regarding cyclo([Ahx]ICSRS[tBuAla]PPI[Pen]IP) (disulfide 3-11; also: TFA salt) [Example 51: (Ahx)**-IC+SRS-((tBu)A)-PPI-(Pen)+-IP**], the “human MASP2 IC50” value in assay [1] is 17 nM. Moreover, the “human MASP1 IC50” value in assay [2] came out at 6.3 nM.
For cyclo([Ahx]AICSRS[tBuAla]PPI[NMeC]IPD) (disulfide 4-12; also: TFA salt) [Example 32: (Ahx)**-AIC+SRS-((tBu)A)-PPI-((N-Me)C)+-IPD**], the “human MASP2 IC50” value in assay [1] amounted to 63.5 nM. Moreover, the “human MASP1 IC50” value in assay [2] was 22 nM.
The like results for cyclo([Ahx]GICSRSLPPICIPD) (disulfide 4-12; also: TFA salt) [Example 13: (Ahx)**-GIC+SRSLPPIC+IPD**] were, in that order, 130 nM and 140 nM.
For the molecule AGGICSRSLP[Oic]I[Pen]IPD-NH2 (disulfide 5-13; lactam N-16; also: TFA salt) [Example 42: A**GGIC+SRSLP-(Oic)-I-(Pen)+-IPD++-NH2], the “human MASP2 IC50” value in assay [1] was 200 nM. For the same molecule, the “human MASP1 IC50” value in assay [2] amounted to 13 nM.
The like results for cyclo([PEG2]AICSRS[tBuAla]PPI[Pen]IPD) (disulfide 4-12; also: TFA salt) [Example 34: (PEG1(10 atoms))**-AIC+SRS-((tBu)A)-PPI-(Pen)+-IPD**] were, in that order, 98 nM and 11 nM.
For AGAICSRSLP[Oic]I[Pen]IPD-NH2 (disulfide 5-13; lactam N-16; also: TFA salt) [Example 41: A**GAIC+SRSLP-(Oic)-I-(Pen)+-IPD++-NH2], in assay [1], the “human MASP2 IC50” value is 190 nM. Besides, in assay [2], the “human MASP1 IC50” value stood at 5.9 nM.
The like results for cyclo([PEG2]GICSRSLPPICIPD) (disulfide 4-12; also: TFA salt) [Example 24: (PEG1(10 atoms))**-GIC+SRSLPPIC+IPD**] were, in that order, 210 nM and 110 nM.
GAICSRSLPPICIPD-NH2 (disulfide 4-12; lactam N-15; also: TFA salt) [Example 37: G**AIC+SRSLPPIC+IPD++-NH2]: in assay [1], the “human MASP2 IC50” value is 140 nM. Also, the “human MASP1 IC50” value in assay [2] was found to be 16 nM.
In the case of KGICSRSLPPICIPD (lactam 1-C; disulfide 4-12; also: TFA salt) [Example 22: K++GIC+SRSLPPIC+IPD**], the “human MASP2 IC50” value in assay [1] came to 91 nM. Further, the “human MASP1 IC50” value in assay [2] came out at 190 nM.
The like results for cyclo([Dap][Dap]ICSRS[tBuAla]PPI[Pen]I) (disulfide 4-12; also: TFA salt) [Example 57: (Dap)**-(Dap)-IC+SRS-((tBu)A)-PPI-(Pen)+-I**] were, in that order, 340 nM and 46 nM.
Regarding [Ahx]GICSRSLP[Oic]I[Pen]IPD-NH2 (disulfide 4-12; lactam N-15; also: TFA salt) [Example 49: (Ahx)**-GIC+SRSLP-(Oic)-I-(Pen)+-IPD++-NH2], the “human MASP2 IC50” value in assay [1] is 140 nM. Moreover, the “human MASP1 IC50” value in assay [2] came out at 19 nM.
Consider cyclo([Ahx]AICSRSLPPICIPD) (disulfide 4-12; also: TFA salt) [Example 45: (Ahx)**-AIC+SRSLPPIC+IPD**], for which the “human MASP2 IC50” value in assay [1] stood at 74 nM. Also, the “human MASP1 IC50” value in assay [2] turned out to be 92 nM.
Turning to cyclo([Dab]ICSRS[tBuAla]PPI[Pen]IP) (disulfide 3-11; also: TFA salt) [Example 56: (Dab)**-IC+SRS-((tBu)A)-PPI-(Pen)+-IP**], the “human MASP2 IC50” value in assay [1] was 1100 nM. Also, in assay [2], the “human MASP1 IC50” value is 86 nM.
For the molecule [Ahx]AICSRSLP[Oic]I[Pen]IPD-NH2 (disulfide 4-12; lactam N-15; also: TFA salt) [Example 43: (Ahx)**AIC+SRSLP-(Oic)-I-(Pen)+-IPD++-NH2], the “human MASP2 IC50” value in assay [1] was 120 nM. For the same molecule, the “human MASP1 IC50” value in assay [2] worked out at 6.7 nM.
For the molecule cyclo([Ahx]AICSRS[tBuAla]PPICIPD) (disulfide 4-12; also: TFA salt) [Example 46: (Ahx)**-AIC+SRS-((tBu)A)-PPIC+IPD**], the “human MASP2 IC50” value in assay [1] was 89 nM. The “human MASP1 IC50” value in assay [2] was 56 nM.
In the case of cyclo(AGGICSRS[tBuAla]PPI[Pen]IPD) (disulfide 5-13; also: TFA salt) [Example 29: A**GGIC+SRS-((tBu)A)-PPI-(Pen)+-IPD**], the “human MASP2 IC50” value in assay [1] came out at 68 nM. In assay [2], the “human MASP1 IC50” value was found to be 8.6 nM.
With CAICSRS[tBuAla]PPI[Pen]IPDC-NH2 (disulfide 1-16, 4-12; also: TFA salt) [Example 50: C++AIC+SRS-((tBu)A)-PPI-(Pen)+-IPDC++-NH2], the “human MASP2 IC50” value in assay [1] worked out at 210 nM. For the same molecule, the “human MASP1 IC50” value in assay [2] was 13 nM.
As for cyclo([Dap]ICSRS[tBuAla]PPI[Pen]IP) (disulfide 3-11; also: TFA salt) [Example 55: (Dap)**-IC+SRS-((tBu)A)-PPI-(Pen)+-IP**], in assay [1], the “human MASP2 IC50” value was 900 nM. The “human MASP1 IC50” value in assay [2] came to 46 nM.

B1: Example 21: G**SGIC+SRSLPPIC+IPDS** (peptide)
peptide: cyclo(GSGICSRSLPPICIPDS)
modifications: disulfide 5-13; not fully specified; printed as G**SGIC+SRSLPPIC+IPDS**; also: TFA salt
As for B1, the “human MASP2 IC50” value in assay [1] worked out at 120 nM. Further, the “human MASP1 IC50” value in assay [2] amounted to 170 nM.
Turning to [Orn]AICSRS[tBuAla]PPI[NMeC]IPD-NH2 (lactam 1-15; disulfide 4-12; also: TFA salt) [Example 44: (Orn)++-AIC+SRS-((tBu)A)-PPI-((N-Me)C)+-IPD++-NH2], in assay [1], the “human MASP2 IC50” value turned out to be 230 nM. Besides, the “human MASP1 IC50” value in assay [2] worked out at 4.7 nM.
cyclo([Ahx]AICSRS[tBuAla]PPI[Pen]IPD) (disulfide 4-12; also: TFA salt) [Example 27: (Ahx)**-AIC+SRS-((tBu)A)-PPI-(Pen)+-IPD**]: the “human MASP2 IC50” value in assay [1] was 37.5 nM. Besides, in assay [2], the “human MASP1 IC50” value was found to be 9.1 nM.
cyclo(AGAICSRS[tBuAla]PPI[Pen]IPD) (disulfide 5-13; also: TFA salt) [Example 26: A**GAIC+SRS-((tBu)A)-PPI-(Pen)+-IPD**]: the “human MASP2 IC50” value in assay [1] worked out at 170 nM. Also, the “human MASP1 IC50” value in assay [2] is 12 nM.
Regarding cyclo([Dap][Dap]GICSRSLPPICIPD) (disulfide 5-13; also: TFA salt) [Example 23: (Dap)**-(Dap)-GIC+SRSLPPIC+IPD**], in assay [1], the “human MASP2 IC50” value amounted to 20 nM. Besides, the “human MASP1 IC50” value in assay [2] was 180 nM.
For cyclo([Ahx][Abu]ICSRS[tBuAla]PPI[Pen]IPD) (disulfide 4-12; also: TFA salt) [Example 38: (Ahx)**-(Abu)-IC+SRS-((tBu)A)-PPI-(Pen)+-IPD**], the “human MASP2 IC50” value in assay [1] came to 44 nM. Moreover, the “human MASP1 IC50” value in assay [2] came out at 20 nM.
In the case of [Ahx]GICSRS[tBuAla]PPI[Pen]IPD-NH2 (disulfide 4-12; lactam N-15; also: TFA salt) [Example 48: (Ahx)**-GIC+SRS-((tBu)A)-PPI-(Pen)+-IPD++-NH2], the “human MASP2 IC50” value in assay [1] was found to be 70 nM. Besides, in assay [2], the “human MASP1 IC50” value was 10 nM.
Turning to cyclo([Ahx]AICSRSLP[Oic]ICIP) (disulfide 4-12; also: TFA salt) [Example 25: (Ahx)**-AIC+SRSLP-(Oic)-IC+IP**], the “human MASP2 IC50” value in assay [1] worked out at 610 nM. Further, the “human MASP1 IC50” value in assay [2] worked out at 60 nM.
